Assay results reported in paper PMC8141534 (The Journal of Biological Chemistry, 2021).

Key:
Mycobacterium bovis BCG = format: cell-based
P167L Rho [1] = biological target: T1, P167L Rho (Escherichia coli, UniProt P0AG30, P167L); format: binding; conditions: Rho:ligand in μg: 1:6 (peptide 16), 1:4 (peptide 33), 1:3 (Psu); 1 mM ATP, pH 8.0, 37 °C, 20 min; SD of two or three measurements
E. coli Rho [2] = conditions: compared with peptide 33; ref [9]; cited from earlier work
Description: Next, we assayed the peptide-mediated inhibition of the in vitro transcription termination functions of the Rho. We used a linear DNA template where a trpt′ terminator is fused downstream of a strong T7A1 promoter. On this template, efficient transcription termination over a terminator zone is usually observed in the presence of Rho (Fig. 3D; ([16])). The amount of run-off transcripts at the end of this template gives the measure of Rho inhibition by the peptides. We observed that the amount of ...

[3] = system: Rho point mutants, R144E, R146E, and, E148R; conditions: cited from earlier work
[4] = system: Mycobacterium smegmatis mc^2155; format: cell-based
MG1655 gene expression = format: cell-based, Escherichia coli; conditions: qRT-PCR, relative to empty vector
[5] = system: Rho proteins from pathogenic bacteria; format: biochemical; conditions: 35 μM peptide 33, 50 nM Rho, E. coli RNAP stalled EC, trpt′
E. coli Rho [6] = conditions: cited from earlier work
P167L Rho [7] = biological target: T1, P167L Rho; conditions: ref [11]; cited from earlier work
E. coli Rho [8] = assay: Rho-mediated RNA release from stalled (roadblocked) elongation complex; format: biochemical, Escherichia coli; conditions: Fig. S4B
pathogenic Rho proteins = conditions: ref [13]; cited from earlier work
[9] = system: Rho-dependent termination (trac and trpt′ lacZ fusions); format: cell-based, Escherichia coli; conditions: qRT-PCR, 2−ΔΔCt relative to empty vector; 100 μM IPTG (20 μM for Psu); at least three biological replicates
[10] = system: Rho-dependent termination (galEP3 reporter); assay: in vivo Rho-dependent termination, galEP3 reporter, MacConkey-galactose plates; format: cell-based, Escherichia coli; conditions: MC4100 galEP3, MacConkey-galactose plates, overexpression
WT Rho = WT Rho (Escherichia coli, UniProt P0AG30); conditions: earlier work; ref [11]; cited from earlier work
Chain of WT Rho (P0AG30 whole entry): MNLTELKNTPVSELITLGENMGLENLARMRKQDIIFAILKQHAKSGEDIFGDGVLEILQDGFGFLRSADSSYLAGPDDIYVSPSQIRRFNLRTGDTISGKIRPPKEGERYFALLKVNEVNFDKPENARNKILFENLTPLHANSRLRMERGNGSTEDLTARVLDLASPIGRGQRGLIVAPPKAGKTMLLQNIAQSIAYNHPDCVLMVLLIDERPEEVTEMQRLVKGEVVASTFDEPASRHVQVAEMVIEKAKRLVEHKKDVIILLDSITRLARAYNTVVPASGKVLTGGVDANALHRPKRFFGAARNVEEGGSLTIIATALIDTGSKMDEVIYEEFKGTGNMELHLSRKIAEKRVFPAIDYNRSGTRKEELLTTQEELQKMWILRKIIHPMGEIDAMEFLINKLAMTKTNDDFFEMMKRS

[11] = system: Rho-dependent termination (trpt′ and trac terminators, lacZ reporter); format: cell-based, Escherichia coli; conditions: trpt′ and trac, LB-X-gal, induction by 50 μM IPTG

B1: Psu: bacteriophage P4 capsid protein, natural Rho antagonist, ∼42-kDa dimer (protein)
chain: MESTALQQAFDTCQNNKAAWLQRKNELAAAEQEYLRLLSGEGRNVSRLDELRNIIEVRKWQVNQAAGRYIRSHEAVQHISIRDRLNDFMQQHGTALAAALAPELMGYSELTAIARNCAIQRATDALREALLSWLAKGEKINYSAQDSDILTTIGFRPDVASVDDSREKFTPAQNMIFSRKSAQLASRQSV
In the case of B1, the “growth phenotype upon streaking (in words)” value (Mycobacterium bovis BCG) is listed as “very sick phenotype”, the “Fraction of Rho associated (%)” value (P167L Rho [1]) is listed as 49 ± 5% and the “in vitro Rho inhibition in termination assay (in words)” value (E. coli Rho [2]) is listed as “A similar level of in vitro Rho inhibition”. The “binding of Rho mutants R144E, R146E, E148R (in words)” value [3] was “did not bind to Psu”, the “growth phenotype upon streaking (in words)” value [4] was “very sick phenotype” and the “transformants obtained (in words)” value [4] was “fewer colonies than those obtained from the transformation with the empty vector”. For the same molecule, the “upregulation of tested genes (in words)” value (MG1655 gene expression) was “highest level of upregulations of the tested genes”, the “inhibition of RNA release by pathogenic Rho proteins (in words)” value [5] was “could inhibit the termination process by all the different Rho proteins” and the “rate of RNA-dependent ATP hydrolysis of Rho (in words)” value (E. coli Rho [6]) was “reduced the rate of RNA-dependent ATP hydrolysis”. The “in vitro stable complex with P167L Rho (in words)” value (P167L Rho [7]) was “stable complex between Psu and Rho could form if a mutant Rho, P167L, was used”, the “inhibition of Rho-induced RNA release from stalled EC (in words)” value (E. coli Rho [8]; Fig. 3E) was “significantly inhibited” and the “Frac. of RNA released (%)” value (E. coli Rho [8]; Psu 5.0, Rho 50 nM) was 12 ± 0.4%. For the same molecule, the “inhibition of ATP hydrolysis of Salmonella and Vibrio Rho with poly(C) RNA (in words)” value (pathogenic Rho proteins) was “too fast to be inhibited by Psu”, the “enhancement of expression of Plac-trac-lacZ fusion” value [9] was 28 fold and the “colour of colonies, galEP3 reporter (in words)” value [10] was “appearance of red colonies”. For the same molecule, the “in vitro stable complex with WT Rho (in words)” value (WT Rho) was “failed to obtain a stable in vitro Rho–Psu complex with the WT Rho” and the “colour of colonies, lacZ reporter (in words)” value [11] was “deep blue colonies”.
